Measurements reported in article PMC8285493 (Nature Communications, 2021).
Where two headings read alike, the source gives them in different places.

B1: full-length SLFN12 (natural protein, human, UniProt Q8IYM2 1-578, looked up)
chain: MNISVDLETNYAELVLDVGRVTLGENSRKKMKDCKLRKKQNESVSRAMCALLNSGGGVIKAEIENEDYSYTKDGIGLDLENSFSNILLFVPEYLDFMQNGNYFLIFVKSWSLNTSGLRITTLSSNLYKRDITSAKVMNATAALEFLKDMKKTRGRLYLRPELLAKRPCVDIQEENNMKALAGVFFDRTELDRKEKLTFTESTHVEIKNFSTEKLLQRIKEILPQYVSAFANTDGGYLFIGLNEDKEIIGFKAEMSDLDDLEREIEKSIRKMPVHHFCMEKKKINYSCKFLGVYDKGSLCGYVCALRVERFCCAVFAKEPDSWHVKDNRVMQLTRKEWIQFMVEAEPKFSSSYEEVISQINTSLPAPHSWPLLEWQRQRHHCPGLSGRITYTPENLCRKLFLQHEGLKQLICEEMDSVRKGSLIFSRSWSVDLGLQENHKVLCDALLISQDSPPVLYTFHMVQDEEFKGYSTQTALTLKQKLAKIGGYTKKVCVMTKIFYLSPEGMTSCQYDLRSQVIYPESYYFTRRKYLLKALFKALKRLKSLRDQFSFAENLYQIIGIDCFQKNDKKMFKSCRRLT
B2: catalytic domain of PDE3A (PDE3A^CAT), residues 640-1141 (domain or fragment, human, UniProt Q14432 640-1141, looked up)
chain: EDETECLREPLRKASACSTYAPETMMFLDKPILAPEPLVMDNLDSIMEQLNTWNFPIFDLVENIGRKCGRILSQVSYRLFEDMGLFEAFKIPIREFMNYFHALEIGYRDIPYHNRIHATDVLHAVWYLTTQPIPGLSTVINDHGSTSDSDSDSGFTHGHMGYVFSKTYNVTDDKYGCLSGNIPALELMALYVAAAMHDYDHPGRTNAFLVATSAPQAVLYNDRSVLENHHAAAAWNLFMSRPEYNFLINLDHVEFKHFRFLVIEAILATDLKKHFDFVAKFNGKVNDDVGIDWTNENDRLLVCQMCIKLADINGPAKCKELHLQWTDGIVNEFYEQGDEEASLGLPISPFMDRSAPQLANLQESFISHIVGPLCNSYDSAGLMPGKWVEDSDESGDTDDPEEEEEEAPAPNEEETCENNESPKKKTFKRRKIYCQITQHLLQNHKMWKKVIEEEQRLAGIENQSLDQTPQSHSSEQIQAIKEEEEEKGKPRGEEIPTQKPDQ
B3: biotinylated Avi-tagged PDE3A^CAT (domain or fragment, human, UniProt Q14432 640-1141, looked up)
chain: EDETECLREPLRKASACSTYAPETMMFLDKPILAPEPLVMDNLDSIMEQLNTWNFPIFDLVENIGRKCGRILSQVSYRLFEDMGLFEAFKIPIREFMNYFHALEIGYRDIPYHNRIHATDVLHAVWYLTTQPIPGLSTVINDHGSTSDSDSDSGFTHGHMGYVFSKTYNVTDDKYGCLSGNIPALELMALYVAAAMHDYDHPGRTNAFLVATSAPQAVLYNDRSVLENHHAAAAWNLFMSRPEYNFLINLDHVEFKHFRFLVIEAILATDLKKHFDFVAKFNGKVNDDVGIDWTNENDRLLVCQMCIKLADINGPAKCKELHLQWTDGIVNEFYEQGDEEASLGLPISPFMDRSAPQLANLQESFISHIVGPLCNSYDSAGLMPGKWVEDSDESGDTDDPEEEEEEAPAPNEEETCENNESPKKKTFKRRKIYCQITQHLLQNHKMWKKVIEEEQRLAGIENQSLDQTPQSHSSEQIQAIKEEEEEKGKPRGEEIPTQKPDQ
modifications: biotin on the Avi-tag (BirA ligase)

Key:
[1] = molecular target: B2; test: SEC-MALS
AUC = molecular target: the molecule itself; test: AUC
SEC-MALS [2] = molecular target: the molecule itself; test: SEC-MALS
[3] = molecular target: B3; test: BLI
His6-MBP-SLFN12 = His6-MBP-SLFN12 (human, UniProt Q8IYM2 1-578); test: pull-down
SEC-MALS [4] = molecular target: the molecule itself; test: SEC-MALS; remark: listed apart in the source
full-length SLFN12 = molecular target: B1; test: BLI

stoichiometry N [1] | KD with DNMDP [3] [nM] | binding result (His6-MBP-SLFN12) | Kd (full-length SLFN12) [nM] | Binder | Kd (AUC) [nM] | stoichiometry N (SEC-MALS [2]) | stoichiometry N (SEC-MALS [4])
1 SLFN12 per PDE3A^CAT (2:2) | 65 |  |  | B1 | 870 | 2 | 
 |  | binds |  | B2 | 40 |  | 2
 |  |  | 320 | B3 |  |  | 
